Experimental data: publication doi:10.1101/2024.06.20.599867 (bioRxiv, 2024)

Target: the molecule itself
Experiment: cryo-EM structure

B1: ABC transporter MsbA (His-tagged, E. coli) (natural protein)
chain: MHNDKDLSTWQTFRRLWPTIAPFKAGLIVAGVALILNAASDTFMLSLLKPLLDDGFGKTDRSVLVWMPLVVIGLMILRGITSYVSSYCISWVSGKVVMTMRRRLFGHMMGMPVSFFDKQSTGTLLSRITYDSEQVASSSSGALITVVREGASIIGLFIMMFYYSWQLSIILIVLAPIVSIAIRVVSKRFRNISKNMQNTMGQVTTSAEQMLKGHKEVLIFGGQEVETKRFDKVSNRMRLQGMKMVSASSISDPIIQLIASLALAFVLYAASFPSVMDSLTAGTITVVFSSMIALMRPLKSLTNVNAQFQRGMAACQTLFTILDSEQEKDEGKRVIERATGDVEFRNVTFTYPGRDVPALRNINLKIPAGKTVALVGRSGSGKSTIASLITRFYDIDEGEILMDGHDLREYTLASLRNQVALVSQNVHLFNDTVANNIAYARTEQYSREQIEEAARMAYAMDFINKMDNGLDTVIGENGVLLSGGQRQRIAIARALLRDSPILILDEATSALDTESERAIQAALDELQKNRTSLVIAHRLSTIEKADEIVVVEDGVIVERGTHNDLLEHRGVYAQLHKMQFGQ
- binding result: binds
